Data taken from article PMC5762833, “Direct Molecular Fishing of New Protein Partners for Human Thromboxane Synthase” (Acta Naturae, 2017).

B1: aldosterone synthase (CYP11B2) (enzyme, UniProt P19099 25-503, looked up)
chain: GTRAARAPRTVLPFEAMPQHPGNRWLRLLQIWREQGYEHLHLEMHQTFQELGPIFRYNLGGPRMVCVMLPEDVEKLQQVDSLHPCRMILEPWVAYRQHRGHKCGVFLLNGPEWRFNRLRLNPDVLSPKAVQRFLPMVDAVARDFSQALKKKVLQNARGSLTLDVQPSIFHYTIEASNLALFGERLGLVGHSPSSASLNFLHALEVMFKSTVQLMFMPRSLSRWISPKVWKEHFEAWDCIFQYGDNCIQKIYQELAFNRPQHYTGIVAELLLKAELSLEAIKANSMELTAGSVDTTAFPLLMTLFELARNPDVQQILRQESLAAAASISEHPQKATTELPLLRAALKETLRLYPVGLFLERVVSSDLVLQNYHIPAGTLVQVFLYSLGRNAALFPRPERYNPQRWLDIRGSGRNFHHVPFGFGMRQCLGRRLAEAEMLLLLHHVLKHFLVETLTQEDIKMVYSFILRPGTSPLLTFRAIN
notes: aldosterone synthase (CYP11B2), mitochondrial cytochrome P450, recombinant
B2: 4-nitrophenol-2-hydroxylase (CYP2E1), recombinant (enzyme, UniProt P05181 1-493, looked up)
chain: MSALGVTVALLVWAAFLLLVSMWRQVHSSWNLPPGPFPLPIIGNLFQLELKNIPKSFTRLAQRFGPVFTLYVGSQRMVVMHGYKAVKEALLDYKDEFSGRGDLPAFHAHRDRGIIFNNGPTWKDIRRFSLTTLRNYGMGKQGNESRIQREAHFLLEALRKTQGQPFDPTFLIGCAPCNVIADILFRKHFDYNDEKFLRLMYLFNENFHLLSTPWLQLYNNFPSFLHYLPGSHRKVIKNVAEVKEYVSERVKEHHQSLDPNCPRDLTDCLLVEMEKEKHSAERLYTMDGITVTVADLFFAGTETTSTTLRYGLLILMKYPEIEEKLHEEIDRVIGPSRIPAIKDRQEMPYMDAVVHEIQRFITLVPSNLPHEATRDTIFRGYLIPKGTVVVPTLDSVLYDNQEFPDPEKFKPEHFLNENGKFKYSDYFKPFSTGKRVCAGEGLARMELFLLLCAILQHFNLKPLVDPKDIDLSPIHIGFGCIPPRYKLCVIPRS
notes: cytochrome P450 2E1, recombinant; also called cytochrome P450 2E1

What was measured:
[1] = target: T1, Human thromboxane synthase (TBXAS1) (human, UniProt P24557 1-533); assay: SPR; Biacore 3000; TBXAS1 amine-coupled to a CM5 chip (about 7,500 RU); analytes 50 nM to 5 μM injected for 10 min at 5 μL/min; control channel without protein; conditions: both partners purified
T1 construct: thromboxane synthase (TBXAS1, CYP5A1), human, recombinant; Covalently immobilised on CNBr-Sepharose 4B (fishing) or on a CM5 chip (SPR); also used as analyte; also called CYP5A1
T1 sequence (looked up): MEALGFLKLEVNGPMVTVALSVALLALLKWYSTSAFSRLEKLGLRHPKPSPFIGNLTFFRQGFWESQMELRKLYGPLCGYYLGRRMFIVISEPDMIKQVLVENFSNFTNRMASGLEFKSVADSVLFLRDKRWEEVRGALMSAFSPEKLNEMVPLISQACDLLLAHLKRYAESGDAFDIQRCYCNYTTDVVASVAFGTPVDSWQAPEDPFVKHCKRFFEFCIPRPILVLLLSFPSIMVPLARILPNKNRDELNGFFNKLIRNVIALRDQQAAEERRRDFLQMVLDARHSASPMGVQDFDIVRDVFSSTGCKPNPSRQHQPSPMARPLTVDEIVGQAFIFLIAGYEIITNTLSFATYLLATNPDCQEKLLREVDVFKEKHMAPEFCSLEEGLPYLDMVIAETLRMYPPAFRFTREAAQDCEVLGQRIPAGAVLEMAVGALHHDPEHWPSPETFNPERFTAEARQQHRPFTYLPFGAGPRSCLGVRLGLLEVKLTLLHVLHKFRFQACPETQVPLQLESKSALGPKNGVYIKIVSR

[2] = target: T1, Human thromboxane synthase (TBXAS1); assay: SPR; as a2, with isatin added to the analyte samples at a final concentration of 100 μM and incubated for 15 min; conditions: both partners purified

| Binder | Kd [1] | fold difference of koff against TBXAS1•CYP11B2 (CYP2E1 the slower) [1] | fold difference of kon against TBXAS1•CYP11B2 (CYP2E1 the slower) [1] | fold decrease in koff with 100 μM isatin against no isatin [2] | fold increase in affinity with 100 μM isatin against no isatin [2] | fold increase in kon with 100 μM isatin against no isatin [2] |
| --- | --- | --- | --- | --- | --- | --- |
| B1 | 690 nM |  |  |  |  |  |
| B2 | 430 nM | 15 fold | 10 fold | 2.5 fold | 5 fold | 2 fold |
